Assay [1] addresses T1, MHC class I molecule HLA-A*0201 (iTopia plate-bound monomer) (biotin (bound to streptavidin-coated plate)).
T1 construct: also called A2
Briefly: iTopia off-rate assay, 37 C; fit R^2 0.96. The procedure: (§1) The 9 mers were tested for Peptide Binding, Off Rate and Affinity using iTopia Epitope Discovery System in accordance with the manufacturer's instructions. Briefly, 96 well microtitre plates coated with MHC molecules representing different MHC alleles are used to identify candidate peptides. […] Determinations are performed in duplicate using an ELISA plate reader and included allele specific positive controls.
(§2) A one-phase exponential decay curve, with a plateau given equal to 0, was generated using GraphPad Prism® software, which calculated the t1/2 and goodness-of-fit, as measured by r², for each peptide.

Assay [2] has as its target T1, MHC class I molecule HLA-A*0201 (iTopia …). Briefly: iTopia off-rate assay, 37 C; fit R^2 0.64. The procedure: as §1, §2
Assay [3] has the same target. Briefly: iTopia off-rate assay, 37 C; fit R^2 0.33. The protocol: as §1, §2
For assay [4] the target is unchanged. Briefly: iTopia off-rate assay, 37 C; fit R^2 0.7. The procedure: as §1, §2
Assay [5] has as its target T2, MHC class I molecule HLA-B*0702 (iTopia plate-bound monomer) (biotin (bound to streptavidin-coated plate)).
T2 construct: Commercial iTopia system; also called B7
Briefly: iTopia off-rate assay, 37 C; fit R^2 0.44. The procedure: as §1, §2

The target in assay [6] is T1, MHC class I molecule HLA-A*0201 (iTopia …). Description: iTopia off-rate assay, 37 C; fit R^2 0.8. The protocol:
as §1, §2

The target is the same in assay [7]. Briefly: iTopia off-rate assay, 37 C; fit R^2 0.82. The protocol:
as §1, §2

Assay [8] deals with T2, MHC class I molecule HLA-B*0702 (iTopia …). Briefly: iTopia off-rate assay, 37 C; fit R^2 0.11. The procedure:
as §1, §2

In assay [9] the target is T1, MHC class I molecule HLA-A*0201 (iTopia …). Briefly: iTopia off-rate assay, 37 C; fit R^2 0.9. The protocol: as §1, §2
Assay [10] concerns the target T3, MHC class I molecule HLA-A*0301 (iTopia plate-bound monomer) (biotin (bound to streptavidin-coated plate)).
T3 construct: also called A3
Briefly: iTopia off-rate assay, 37 C; fit R^2 0.95. The protocol: as §1, §2

For assay [11], the target named is T1, MHC class I molecule HLA-A*0201 (iTopia …). Briefly: iTopia off-rate assay, 37 C; fit R^2 0.92. The procedure: as §1, §2
Assay [12] shares this target. Briefly: iTopia off-rate assay, 37 C; fit R^2 0.77. The protocol: as §1, §2
For assay [13], the target named is T2, MHC class I molecule HLA-B*0702 (iTopia …). Briefly: iTopia off-rate assay, 37 C; fit R^2 0.68. The protocol:
as §1, §2

The target in assay [14] is T1, MHC class I molecule HLA-A*0201 (iTopia …). Briefly: iTopia off-rate assay, 37 C; fit R^2 0.02. The protocol:
as §1, §2

Assay [15] has as its target T3, MHC class I molecule HLA-A*0301 (iTopia …). Briefly: iTopia off-rate assay, 37 C; fit R^2 0.94. The procedure: as §1, §2
The target in assay [16] is T1, MHC class I molecule HLA-A*0201 (iTopia …). Briefly: iTopia off-rate assay, 37 C; fit R^2 0.85. The protocol: as §1, §2
For assay [17] the target is unchanged. Description: iTopia off-rate assay, 37 C; fit R^2 0.31. The protocol:
as §1, §2

In assay [18] the target is T2, MHC class I molecule HLA-B*0702 (iTopia …). Briefly: iTopia off-rate assay, 37 C; fit R^2 0.69. The protocol: as §1, §2
Assay [19] has as its target T1, MHC class I molecule HLA-A*0201 (iTopia …). Briefly: iTopia off-rate assay, 37 C; fit R^2 0.08. The protocol: as §1, §2
The target is the same in assay [20]. Briefly: iTopia off-rate assay, 37 C; fit R^2 0.89. The procedure: as §1, §2
For assay [21] the target is unchanged. Description: iTopia off-rate assay, 37 C; fit R^2 0.83. The procedure:
as §1, §2

Assay [22] has the same target. Description: iTopia off-rate assay, 37 C; fit R^2 0.79. The protocol: as §1, §2
The target is the same in assay [23]. Description: iTopia off-rate assay, 37 C; fit R^2 0.66. The protocol: as §1, §2
Assay [24] concerns the target T2, MHC class I molecule HLA-B*0702 (iTopia …). Description: iTopia off-rate assay, 37 C; fit R^2 0.95. The procedure:
as §1, §2

Assay [25] has as its target T1, MHC class I molecule HLA-A*0201 (iTopia …). Briefly: iTopia off-rate assay, 37 C; fit R^2 0.74. The protocol: as §1, §2
Assay [26] has the same target. Description: iTopia off-rate assay, 37 C; fit R^2 0.78. The procedure:
as §1, §2

Assay [27] shares this target. Description: iTopia off-rate assay, 37 C; fit R^2 0.05. The protocol:
as §1, §2

Assay [28] shares this target. Briefly: iTopia off-rate assay, 37 C; fit R^2 0.99. The protocol:
as §1, §2

Assay [29] has the same target. Briefly: iTopia off-rate assay, 37 C; fit R^2 0.72. The procedure:
as §1, §2

The target is the same in assay [30]. Description: iTopia off-rate assay, 37 C; fit R^2 0.57. The protocol: as §1, §2
The target of assay [31] is T2, MHC class I molecule HLA-B*0702 (iTopia …). Briefly: iTopia off-rate assay, 37 C; fit R^2 0.79. The protocol: as §1, §2
Assay [32] addresses T3, MHC class I molecule HLA-A*0301 (iTopia …). Description: iTopia off-rate assay, 37 C; fit R^2 0.9. The protocol: as §1, §2

B1: 5T4 9-mer peptide 123 SLVSLTYVS (peptide)
peptide: SLVSLTYVS
notes: also called Peptide No 123
B1 displayed a t½ half life in assay [1] of 0.9 h.

B2: 5T4 9-mer peptide 60 ELAALNLSG (peptide)
peptide: ELAALNLSG
notes: also called Peptide No 60
Molecule B2 had a t½ half life in assay [2] of 1.6 h.

B3: 5T4 9-mer peptide 176 SLQTSYVFL (peptide)
peptide: SLQTSYVFL
In the case of B3, the t½ half life in assay [3] is 12.4 h.

B4: 5T4 9-mer peptide 135 ALKVLHNGT (peptide)
peptide: ALKVLHNGT
notes: also called Peptide No 135
B4 displayed a t½ half life in assay [2] of 1.5 h.

B5: 5T4 9-mer peptide 206 LTNLSSNSD (peptide)
peptide: LTNLSSNSD
In [4], B5 came in with a t½ half life of 0.7 h.

B6: 5T4 9-mer peptide 67 VRAGAFEHL (peptide)
peptide: VRAGAFEHL
notes: also called Peptide No 67
With B6, in assay [5], the t½ half life was determined as 0.4 h.

B7: 5T4 9-mer peptide 202 YEINADPRL (peptide)
peptide: YEINADPRL
notes: also called Peptide No 202
B7 came in with a t½ half life in assay [6] of 0.6 h.

B8: 5T4 9-mer peptide 111 HFLYLPRDV (peptide)
peptide: HFLYLPRDV
B8 showed a t½ half life in assay [7] of 2.9 h.

B9: 5T4 9-mer peptide 63 LSGSRLDEV (peptide)
peptide: LSGSRLDEV
notes: also called Peptide No 63
On to B9, for which the t½ half life worked out at 2.9 h in assay [8] and 0.5 h in assay [9].

B10: 5T4 9-mer peptide 124 VSLTYVSFR (peptide)
peptide: VSLTYVSFR
Take B10: in assay [10], the t½ half life is 0.2 h.

B11: 5T4 9-mer peptide 51 NQLAVLPAG (peptide)
peptide: NQLAVLPAG
notes: also called Peptide No 51
B11 gave a t½ half life in assay [11] of 3.2 h.

B12: 5T4 9-mer peptide 105 LQGLRRLEL (peptide)
peptide: LQGLRRLEL
For the molecule B12, the t½ half life amounted to 2.1 h in [12] and 0.2 h in assay [13].

B13: 5T4 9-mer peptide 83 SNASVSAPS (peptide)
peptide: SNASVSAPS
notes: also called Peptide No 83
Molecule B13 displayed a t½ half life in assay [14] of 15.8 h.

B14: 5T4 9-mer peptide 110 SNHFLYLPR (peptide)
peptide: SNHFLYLPR
notes: also called Peptide No 110
Regarding B14, the values for the t½ half life in assay [15] and in assay [16] were 0.9 h and 1.2 h, respectively.

B15: 5T4 9-mer peptide 36 AARTVKCVN (peptide)
peptide: AARTVKCVN
notes: also called Peptide No 36
Regarding B15, the results for the t½ half life in assay [17] and in assay [18] were 11.1 h and 1.4 h, respectively.

B16: 5T4 9-mer peptide 10 ARLALVLLG (peptide)
peptide: ARLALVLLG
notes: also called Peptide No 10
B16: the t½ half life in assay [4] is 1.2 h.

B17: 5T4 9-mer peptide 50 TGNQLAVLP (peptide)
peptide: TGNQLAVLP
notes: also called Peptide No 50
In turn, B17 showed a t½ half life in assay [19] of 8.7 h.

B18: 5T4 9-mer peptide 39 CVNRNLTEV (peptide)
peptide: CVNRNLTEV
notes: also called Peptide No 39
In the case of B18, the t½ half life in [5] was found to be 0.7 h; in assay [20] it was 1.3 h.

B19: 5T4 9-mer peptide 128 RNLTHLESL (peptide)
peptide: RNLTHLESL
notes: also called Peptide No 128
The molecule B19 gave a t½ half life in assay [21] of 0.9 h.

B20: 5T4 9-mer peptide 74 LDLSHNPLA (peptide)
peptide: LDLSHNPLA
notes: also called Peptide No 74
Take B20: the t½ half life in [22] was 5.4 h.

B21: 5T4 9-mer peptide 98 FEGMVVAAL (peptide)
peptide: FEGMVVAAL
notes: also called Peptide No 98
For B21, the t½ half life in [1] was determined as 1.1 h.

B22: 5T4 9-mer peptide 112 LYLPRDVLA (peptide)
peptide: LYLPRDVLA
notes: also called Peptide No 112
B22: the t½ half life in assay [23] is 3.4 h.

B23: 5T4 9-mer peptide 189 NRKGIKKWM (peptide)
peptide: NRKGIKKWM
In turn, B23 gave a t½ half life in assay [17] of 10 h.

B24: 5T4 9-mer peptide 45 LPAYVRNLF (peptide)
peptide: LPAYVRNLF
notes: also called Peptide No 45
Regarding B24, in assay [24], the t½ half life stood at 1.7 h.

B25: 5T4 9-mer peptide 49 FLTGNQLAV (peptide)
peptide: FLTGNQLAV
notes: also called Peptide No 49
As for B25, the t½ half life in assay [25] came out at 10.6 h.

B26: 5T4 9-mer peptide 178 SYVFLGIVL (peptide)
peptide: SYVFLGIVL
notes: also called Peptide No 178
Turning to B26, the results for the t½ half life in assay [26] and in assay [18] were 5.1 h and 0.9 h, respectively.

B27: 5T4 9-mer peptide 12 LVLLGWVSS (peptide)
peptide: LVLLGWVSS
notes: also called Peptide No 12
In assay [11], B27 displayed a t½ half life of 2.6 h.

B28: 5T4 9-mer peptide 191 IKKWMHNIR (peptide)
peptide: IKKWMHNIR
notes: also called Peptide No 191
On to B28, for which, in assay [27], the t½ half life came out at 14.6 h.

B29: 5T4 9-mer peptide 13 LLGWVSSSS (peptide)
peptide: LLGWVSSSS
notes: also called Peptide No 13
Molecule B29 gave a t½ half life in assay [28] of 1.8 h.

B30: 5T4 9-mer peptide 97 RSFEGMVVA (peptide)
peptide: RSFEGMVVA
notes: also called Peptide No 97
Turning to B30, the t½ half life in [28] came to 0.7 h.

B31: 5T4 9-mer peptide 75 LSHNPLADL (peptide)
peptide: LSHNPLADL
notes: also called Peptide No 75
As to B31, the t½ half life in [29] stood at 1.3 h.

B32: 5T4 9-mer peptide 175 PPSLQTSYV (peptide)
peptide: PPSLQTSYV
notes: also called Peptide No 175
As for B32, the t½ half life in assay [19] is 12.7 h.

B33: 5T4 9-mer peptide 188 YLNRKGIKK (peptide)
peptide: YLNRKGIKK
notes: also called Peptide No 188
Turning to B33, the t½ half life is 6.5 h in assay [30], 3.3 h in assay [31] and 0.7 h in assay [32].

B34: 5T4 9-mer peptide 129 LTHLESLHL (peptide)
peptide: LTHLESLHL
In [6], B34 displayed a t½ half life of 1 h.

B35: 5T4 9-mer peptide 119 RHLDLSNNS (peptide)
peptide: RHLDLSNNS
Molecule B35 had a t½ half life in assay [7] of 1.1 h.

Values taken from patent US20090280138A1 (OXFORD BIOMEDICA UK, published 2009).
